Experimental data from the nanobody polyreactivity screen of Harvey et al. (2022).

assay: yeast display, Sf9 membrane polyspecificity reagent, FACS + sequencing; frameworks hold sequencing errors
How it was run: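 Sorting gates, low and high (top ~1%), were placed on anti-HA fluorescence to track expression and on streptavidin fluorescence to track reagent binding. A clone's polyreactivity label is taken from the gate it came out of. The reagent was 10% biotinylated, detergent-solubilized Sf9 membrane, applied for 1 hour at 4 °C to galactose-induced yeast display cells.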

Sequence	polyreactivity (PSR sort gate)
QVQLVESGGGLVQAGGSLRLSCAASGSISDVYAMGSYRQAPGKETELVAAITSGASTYYADSVKGRFTISRDNAKNTVYLQMNSLKPEDTAVYYCAADSDSQWGMDYWGQGTQVTVSS	low polyreactivity
QVQLVESGGGLVQAGGSLRLSCAASGSISFLYTMGWYRQAPGKERELVAAITGSTASTYYADSVKGCFTISRDNAKNTVYLQMNSLKPEDTAVYYCAAYWYAEGYWVSRDYWGQGTQVTVSS	low polyreactivity
QVQLVESGGGLVQAGGSLRLSCAASGSISGSYAMGWYRQAPGKERELVASITTSGGGTYYADSVKGRFTISRDNAKNTVYLQMNSLKPEDTAVYYCAVEYGYPYAGLDYWGQGTQVTVSS	low polyreactivity
QVQLVESGGGLVQAGGSLRLSCAASGSISGYYARGWYRQAPGKERELVASIRYTGARTYYADSVKGRFTISRDNAKYTVYVQMNSLKPEDTAVYYCAATEFTYYYSYDYWGQGTLVTVSS	low polyreactivity
QVQLVESGGGLVQAGGSLRLSCAASGSISIQYVMGWYRPAPGKERELVAAIRVIGGSTSYADSVKGRFTISRDNAKNTVYLQMNSLKPEDTAVYYCAADWAWTISDGYYYGYPQYDYWGQGTQVTVSS	high polyreactivity
QVQLVESGGGLVQAGGSLRLSCAASGSISPQNVMGWYRQAPGKERELVAAITGGGSTNYADSVKGRFTISRDNAKNTVYLQMNSLKPEDTAVYYCNADYFQDRLDYWGHGTQVTVSS	low polyreactivity
QVQLVESGGGLVQAGGSLRLSCAASGSISPWYAMGWYRQAPGKERELVAAIRGNGGSTYYADSVKGRFTISRDNAKNTVYLQMNSLKPEDTAVYYCNAVYRRPIFYYWGQGTQVTVSS	low polyreactivity
QVQLVESGGGLVQAGGSLRLSCAASGSISPYNAKGWYRQAPGKERELVAAISSGGRTYYAVSVKGRFTISRDNAKNTVYLQMNSLKPEDTAVYYCNKYPLRPYRGLGVYYRSDYWGQGTQVTVSS	high polyreactivity
QVQLVESGGGLVQAGGSLRLSCAASGSISPYNAMGWYRQAPGKERELVAAISSGGRTYYADSVKGRFTISRDNAKNTVYLQMNSLKPEDTAVYYCARGYWRVYGYSFWYTPEVGYWGQGTQVTVSS	high polyreactivity
QVQLVESGGGLVQAGGSLRLSCAASGSISPYYAMGWYRQEHGKEREMVAAISSGGSTYYADSVKGRFTISRDNAKNTVYLQMNSLKPEDTAVYYCAKAYNYLGYYKYLRYGKFCYWGEGTQVTVSS	high polyreactivity
QVQLVESGGGLVQAGGSLRLSCAASGSISSAYGMGWYIQAPGKERELVATITSGGSTNYADSVKGRFTISRDNAKNTVYLQMNSLTPEDTAVYYCAVDRYALYSGGDYWGQGTQVTVSS	low polyreactivity
QVQLVESGGGLVQAGGSLRLSCAASGSISSNAMGWYRQAPGKERELVAAISGSVGSTYYADSVKGRFTISRDNAKNTVYLQMNSLKREDTAVYYCAADAEAGRYVYGASSELGYDYWGQGTQVTVSS	low polyreactivity
QVQLVESGGGLVQAGGSLRLSCAASGSISSQYGMGWYRQAAGKERDLVATIRDGGRTNYADSVKGRFTISRDNGKNTVYLQMNSLKPEDTAVYYCAALYWYYYTWPLYDYWVQGTQVTVSS	low polyreactivity
QVQLVESGGGLVQAGGSLRLSCAASGSISVANAMGWYRQAPGKERELVAAITDSGDDTYYADSVKGRFTISRDNAKNTVYLQMNSLKPEDTAVYYCAVEAWSVPPYDYWGQGTQVTVSS	low polyreactivity
QVQLVESGGGLVQAGGSLRLSCAASGSISVWYVMGWYRQAPGKERELVAAITRSGGSTFYADSVKGRLTISRDNAKNTVYLQMNSLKPEDTAVYYCAADVGVAWGYGYWGQGTQVTVSS	low polyreactivity
QVQLVESGGGLVQAGGSLRLSCAASGSISYFNAMGWYRQAPGKERELVAAITSGGSTYYADSVKGRFTISRDNAKNTVYLQMNSLKPEDTAVYYCNAPLEWGVYAAQNWDDGYWGQGTQVTVSS	low polyreactivity
QVQLVESGGGLVQAGGSLRLSCAASGSISYRYAMGWYRQAPGKERELVAAISYRGGTTYYADSVKGRFTISRDNAKNTVYLQMNSLKPEDTAVYYCADDFFGSSYPFYYWGQGTQVTVSS	high polyreactivity
QVQLVESGGGLVQAGGSLRLSCAASGSISYSYAMGWYRQAPGKERELVAAISWRGVSTYYADSVKGRFTISRDNAKNTVYLQMNSLKPEDTAVYYCNAVHHYPEHIGGGYWGQGTQVTVSS	low polyreactivity
QVQLVESGGGLVQAGGSLRLSCAASGSISYYAMGWYRQAPGKEMELVAAISQSGGSTYYADSVKGRFTISRDNAKNTVYLQMNSLKPEDTAVYYCAAKSPYSSYYPYGYWGQGTQVTVSS	high polyreactivity
QVQLVESGGGLVQAGGSLRLSCAASGSISYYNAMGWYRQAPGKERELVATITDSGGSTYYADSVKGRFTISRDNAKNTVYLQMNSLKPEDTAVYYCAVDYSEWYSIYDYWGQGTQVTVSS	low polyreactivity
QVQLVESGGGLVQAGGSLRLSCAASGSISYYNAMGWYRQAPGKERELVATITDSGGSTYYADSVKGRFTISRDNAKNTVYLQMNSLKPEDTAVYYCNADYWAVNYDYWGQGSQVTVSS	low polyreactivity
QVQLVESGGGLVQAGGSLRLSCAASGSIVRFYAMGWYRQAPGKERELVASITSGGSTNYADSVKGRFTISRDNAKNTVYLQMNSLKPEDTAVYYCAVRLKGYRRRDYWGQGTQVTVSS	high polyreactivity

Sequence	polyreactivity (PSR sort gate)
QVQLVESGGGLVQAGGSLRLSCAASGSIVRSYAMGWYRQAPGKERELVAAITGGANTYYADSVKGRFTISRDNAKNTVYLQMNSLKPEDTAVYYCAASPIQTGSIFSTFYSYRSYYWGQGTQVTVSS	high polyreactivity
QVQLVESGGGLVQAGGSLRLSCAASGSIVSYYAMGWYRQAPGIERELVAAITTRGGRSYYADSVMGRFTISRDYAKNTVYLPMNSLKPEDTAVYYFNRYPGYIQGDYDYWGQGTQVTVSS	high polyreactivity
QVQLVESGGGLVQAGGSLRLSCAASGSIVVHNAMGWYRQAPGKERELVAAITWSGGSTYYADSVKGRFTISRDNAKNTVYLQMNSLKPVDTAVYYCAAEDVAAQWAYESPTSYWYYYWGQGTQVTVSS	low polyreactivity
QVQLVESGGGLVQAGGSLRLSCAASGSIVVVYDKGWYRQAPGKERELVAAISRRGGNTYYADSVKGRFTISRDNAKNTVYLQMNSLKPEDTAVYYCNAVRTRKAFDYWGQGTQVTVSS	low polyreactivity
QVQLVESGGGLVQAGGSLRLSCAASGSIVYRYSMGWYRQAPGKERELVAGITFGAGTYYADSVKGRFTISRDNAKNTVYLQMNSLKPEDTAVYYCNAIHLPRHRDYWGQGTQVTVSS	low polyreactivity
QVQLVESGGGLVQAGGSLRLSCAASGSIWHKAMGWYRQAPGKERELVASSTNYADSVKGRITISRDNAKNTVYLQMNSLKPEDTAVYYCALEQGVNRNHDYWGQGTQVTVSS	low polyreactivity
QVQLVESGGGLVQAGGSLRLSCAASGSIWYYAMGWYRQAPWTERELVAAIRRGGSTYYADYVKGRFTISRDNAKNTVYVQMNSMKPEDTAVYYCAASWNYYKLDYWGQGTQVTVSS	high polyreactivity
QVQLVESGGGLVQAGGSLRLSCAASGSIYDIYAMGWYGQAPGKERELVAAIRSGDRTHYADSVKGRFTISRDNAKNTVYLQMNSLKPEDTAVYYCAADRYIYLNREHDYWGQGTQVTVSS	low polyreactivity
QVQLVESGGGLVQAGGSLRLSCAASGSIYDWYSMGWNIQAPGKERELVAAISSGDSTYYADSVKGRFTISRDNAKNTVYLQMNSLKPEDTAVYYCAAVTKLSGIRYNYWGQGTQVTVSS	low polyreactivity
QVQLVESGGGLVQAGGSLRLSCAASGSIYESYAMGWYRQAPGKERELVADITYDGGITYYADSVKGRFTISRDNAKNTVYLQMNSLKPEDTAVYYCATEYRYWLSDYSTYFPYDYWGQGSQVTVSS	low polyreactivity
QVQLVESGGGLVQAGGSLRLSCAASGSIYPGNAMGWYRQAPGKERELVAVIDFSGASTYYADSVKGRFTISRDNAKNTVYLQMNSLKPEDTADYWGQGTQVTVSS	low polyreactivity
QVQLVESGGGLVQAGGSLRLSCAASGSIYVPNDMGWYRQAPGKEREFVAAITESDGSTYYADSVKGRFTISRDNAKNTVYLQMNSLKPEDTAVYYCATDSTGVTIVHFDYWGQGTQVTVSS	low polyreactivity
QVQLVESGGGLVQAGGSLRLSCAASGSIYVSYAMGWYRQAPGKERELVATITTSTGSTYADSVKGRFTISRDNAKNTVYLQMNSLKPEDTAVYYCAARYQPWLNDDFDSWGQGTQVTVSS	low polyreactivity
QVQLVESGGGLVQAGGSLRLSCAASGSIYVYYAKGWYRQAPGKERYLVAAINTSGGSTYYADSVKGRFTISRDNAKNTVYLQMNSLKPEDTAVYYCAATPFASPRLHSFVVSYRYYYWGQGTQVTVSS	low polyreactivity
QVQLVESGGGLVQAGGSLRLSCAASGSIYYNAMGWYRQAPGKERELVAAISTSGGTTYYADSVKGRFTISRDNAKNTVYLQMNSLKPEDTAVYYCNARPSRRGAFDYWGQGTQVTVSS	high polyreactivity
QVQLVESGGGLVQAGGSLRLSCAASGSLFGANAMGWYRQAPGKERELVAAISSNGDDTYADSVKGRFTISRDNAKNTVYLQMNSLKPEDTAVYYCNKRPWWWGGDDYWGQGTQVTVSS	low polyreactivity
QVQLVESGGGLVQAGGSLRLSCAASGSLFPHYAMGWNRQAPGKEREFVATISGSTGRTYYADSVKGRFTISRDNAKNTVYLQMNSLKPEDTAVYYCATSVGYYLPPIKYDYWGQGTQVTVSS	low polyreactivity
QVQLVESGGGLVQAGGSLRLSCAASGSLFRSYAMGWYRQAPGKERELVAAISTRVVNTYYADSVKGRFTISRDNAKNTVYLQMNSLKPEDTAVYYCAALRYRITNVYYWGQGTQVTVSS	high polyreactivity
QVQLVESGGGLVQAGGSLRLSCAASGSLFYNNAKGWYRQAPGKERELVAAIRSTGTRTYYADSVKGRFTISRDTAKNTVYLQMNSLKPEDTAVYYCAVGDYGLWSYDYWGQGSQVTVSS	low polyreactivity
QVQLVESGGGLVQAGGSLRLSCAASGSMFITYTMGWYRQAPGKERELVAAITWDGGSTYYADSVKGRFTISRDNAKNTVYLQMNSLKPEDTAVYYCAKDVILVWPYATGRDYWGQGTQVTVSS	low polyreactivity
QVQLVESGGGLVQAGGSLRLSCAASGSNFAGYAMGWYRPAPGKERALGAAISWSGGSTYYADSVKGRFTISRDNAKNTVYLQINSLKPEDTAVYYCNALRYGWKYNYWGQGTQVTVSS	high polyreactivity
